The data set concerns the target SlTAGL1-His (Solanum lycopersicum, UniProt E9JUM2 1-269). In words: EMSA; not given; Beyotime EMSA/Gel-Shift kit and Thermo LightShift Chemiluminescent EMSA kit. The following applies: protein: recombinant; tags: His (pET28a); chain copies: 2; label: biotin 3'; blunt.

Sequence of SlTAGL1-His (E9JUM2 entry or part of it): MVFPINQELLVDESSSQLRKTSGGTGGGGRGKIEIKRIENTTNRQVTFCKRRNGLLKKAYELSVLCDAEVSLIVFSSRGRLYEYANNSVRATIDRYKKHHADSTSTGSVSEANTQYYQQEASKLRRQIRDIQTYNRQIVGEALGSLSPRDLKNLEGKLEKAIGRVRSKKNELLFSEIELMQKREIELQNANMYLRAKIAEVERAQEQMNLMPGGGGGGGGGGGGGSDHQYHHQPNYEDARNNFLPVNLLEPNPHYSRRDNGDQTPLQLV

B1: SlPSY1 promoter probe (dsDNA)
DNA 1: GAATTGAGCACTTGGCTTTTGTATATAGCTTCTATGTGTACCAAAATT
DNA 2: AATTTTGGTACACATAGAAGCTATATACAAAAGCCAAGTGCTCAATTC
Take B1: the binding result was “binds”.

These data come from PMC12581942, “EIN3-binding F-box protein SlEBF3 modulates resistance against Botrytis cinerea and carotenoid biosynthesis by degradation of BBX20 in tomato”.
